According to US7351690B2, “Knockout identification of target-specific sites in peptides” (priority 2000, dated 2008):
Square brackets hold non-standard residues; d marks the D form. Ends that are not written are not given here. pGlu = O=C1CC[C@@H](C(=O)O)N1; Nle = CCCC[C@H](N)C(=O)O

Legend:
MC1-R = target: T1, MC1-R (Mus musculus, UniProt Q01727); assay: competitive inhibition binding assay, 125I-NDP-alpha-MSH, B-16 mouse melanoma cell membranes; settings: 1 μM test peptide; 0.4 nM 125I-NDP-alpha-MSH; B-16 mouse melanoma cell membranes
T1 construct: membranes prepared from hMC3-R, hMC4-R, hMC5-R, and B-16 mouse melanoma cells (containing MC1-R); endogenous in cells; host or cells: B-16 mouse melanoma cells (membranes)
Experimental: (§1) The competitive inhibition binding assay was conducted using membranes prepared from hMC3-R, hMC4-R, hMC5-R, and B-16 mouse melanoma cells (containing MC1-R) using 0.4 nM ^125I-NDP-alpha-MSH (New England Nuclear, Boston, Mass., USA) in 50 mM HEPES buffer containing 1 mM MgCl2, 2 mM CaCl2, and 5 mM KCl, at pH 7.2. The assay tube also contained a chosen concentration of the test peptide of this invention complexed to a rhenium metal ion, typically at a 1 μM concentration, for determining its efficacy in inhibiting the binding of ^125I-NDP-alpha-MSH to its receptor. Non-specific binding was measured by complete inhibition of binding of ^125I-NDP-alpha-MSH in the assay with the presence of 1 μM alpha-MSH. Incubation was for 90 minutes at room temperature, after which the assay mixture was filtered and the membranes washed three times with ice cold buffer. The filter was dried and counted in a gamma counter for remaining radioactivity bound to the membranes. 100% specific binding was defined as the difference in radioactivity (cpm) bound to cell membranes in the absence and presence of 1 μM alpha-MSH. The cpm obtained in presence of test compounds were normalized with respect to 100% specific binding to determine the percent inhibition of ^125I-NDP-alpha MSH binding. Each assay was conducted in triplicate and the actual mean valves are described.

hMC3-R = target: T2, hMC3-R (Homo sapiens, UniProt P41968); assay: competitive inhibition binding assay, 125I-NDP-alpha-MSH, hMC3-R membranes; settings: 1 μM test peptide; 0.4 nM 125I-NDP-alpha-MSH; hMC3-R membranes
T2 construct: expressed in transfected cells
Experimental: as §1

hMC4-R = target: T3, hMC4-R (Homo sapiens, UniProt P32245); assay: competitive inhibition binding assay, 125I-NDP-alpha-MSH, hMC4-R membranes; settings: 1 μM test peptide; 0.4 nM 125I-NDP-alpha-MSH; hMC4-R membranes
T3 construct: expressed in transfected cells
Experimental: as §1

hMC5-R = target: T4, hMC5-R (Homo sapiens, UniProt P33032); assay: competitive inhibition binding assay, 125I-NDP-alpha-MSH, hMC5-R membranes; settings: 1 μM test peptide; 0.4 nM 125I-NDP-alpha-MSH; hMC5-R membranes
T4 construct: expressed in transfected cells
Experimental: as §1

bombesin receptor = assay: competitive binding assay, 125I-Bombesin, rat brain membranes; settings: for % Inhibition: inhibition of 0.01 nM 125I-Bombesin binding, rat brain membranes, test concentration not given
Experimental: Rat brain membranes were utilized as the source of bombesin receptor. The competitive binding assay was performed using a procedure as described by Moody T W, Perk C B, Rivier J, Brown, M R. (Proc Natl Acad Sci USA. 75:5372-5376, […]) and adapted to a 96 well format. An aliquot of membranes taken in assay buffer (50 mM Tris and HCl, pH 7.4 containing 1 mg/mL BSA and 2 μg/mL bacitracin) was incubated with 0.01 nM of ^125I-Bombesin with or without varying concentrations of the test compound for 60 min at 4° C. The incubation was terminated by rapid filtration of the assay mixture, followed by washing the filters with ice-cold buffer. The filters were dried and counted in a gamma counter for retained radioactivity. Non-specific binding was measured by including 1 μM Bombesin in the assay tube. The assay was performed in triplicate and results calculated to determine percentage inhibition of the ^125I-Bombesin binding to its receptors by a test compound. The parent polypeptide is shown in Table 6, with metallopeptides having Cys inserted as shown.

T4 sequence (P33032 whole entry): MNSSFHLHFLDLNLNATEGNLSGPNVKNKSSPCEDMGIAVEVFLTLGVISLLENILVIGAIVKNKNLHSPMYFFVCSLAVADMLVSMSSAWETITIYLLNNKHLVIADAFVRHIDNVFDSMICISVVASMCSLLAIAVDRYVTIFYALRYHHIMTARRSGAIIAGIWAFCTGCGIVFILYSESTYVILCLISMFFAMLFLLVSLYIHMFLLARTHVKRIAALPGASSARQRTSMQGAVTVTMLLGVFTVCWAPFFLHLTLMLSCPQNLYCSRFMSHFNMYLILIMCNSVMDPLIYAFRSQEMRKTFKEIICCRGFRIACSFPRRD
T3 sequence (P32245 whole entry): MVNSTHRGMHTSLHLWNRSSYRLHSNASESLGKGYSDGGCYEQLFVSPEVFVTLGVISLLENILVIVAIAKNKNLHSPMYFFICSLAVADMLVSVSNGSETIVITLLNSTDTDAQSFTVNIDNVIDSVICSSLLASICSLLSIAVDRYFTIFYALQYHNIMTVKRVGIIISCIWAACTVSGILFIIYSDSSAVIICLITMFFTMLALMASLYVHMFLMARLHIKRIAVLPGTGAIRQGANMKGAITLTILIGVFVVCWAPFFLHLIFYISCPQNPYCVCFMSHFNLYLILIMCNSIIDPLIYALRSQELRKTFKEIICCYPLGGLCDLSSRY
T2 sequence (P41968 whole entry): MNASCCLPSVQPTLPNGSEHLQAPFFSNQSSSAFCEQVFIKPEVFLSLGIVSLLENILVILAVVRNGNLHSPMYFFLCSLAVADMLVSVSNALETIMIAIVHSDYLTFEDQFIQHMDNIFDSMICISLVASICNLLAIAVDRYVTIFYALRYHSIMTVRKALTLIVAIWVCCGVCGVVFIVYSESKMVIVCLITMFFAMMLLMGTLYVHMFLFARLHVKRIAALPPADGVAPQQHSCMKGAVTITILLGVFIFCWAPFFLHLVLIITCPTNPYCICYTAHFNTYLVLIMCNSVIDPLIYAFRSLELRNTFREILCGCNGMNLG
T1 sequence (Q01727 whole entry): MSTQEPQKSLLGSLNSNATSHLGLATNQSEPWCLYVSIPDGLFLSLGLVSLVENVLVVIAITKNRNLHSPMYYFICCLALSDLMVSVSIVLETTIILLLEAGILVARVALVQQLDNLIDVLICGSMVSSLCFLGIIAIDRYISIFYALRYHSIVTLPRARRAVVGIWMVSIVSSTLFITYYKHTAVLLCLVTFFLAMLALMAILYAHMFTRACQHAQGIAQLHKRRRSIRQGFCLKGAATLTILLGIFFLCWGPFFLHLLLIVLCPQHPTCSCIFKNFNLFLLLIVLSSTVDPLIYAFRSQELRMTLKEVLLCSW

Row | Substance | % Inhibition at 1 μM at Melanocortin Receptor 1 (MC1-R) [%] | % Inhibition at 1 μM at Melanocortin Receptor 3 (hMC3-R) [%] | % Inhibition at 1 μM at Melanocortin Receptor 4 (hMC4-R) [%] | % Inhibition at 1 μM at Melanocortin Receptor 5 (hMC5-R) [%] | % Inhibition (bombesin receptor) [%] | binding to bombesin receptor, in words (bombesin receptor)
1 | Tyr-Val-Nle-Gly-His-Cys-D-Phe-Arg-Trp-Asp-Arg-Phe-NH2 [3-8] (YV[Nle]GHC[dF]RWDRF-NH2; numbers in words are those of the source; also: oxorhenium(V) N3S1 chelate complex (Re=O)) | 86 | 60 | 55 | 84 | – | –
2 | Ac-Ser-Tyr-Ser-Nle-Glu-His-Phe-Arg-Trp-D-Cys-Gly-Lys-Pro-Val-NH2 (chain 1 Ac-SYS[Nle]EHFRW; chain 2 [dC]GKPV-NH2; not fully specified (bridges); numbers in words are those of the source; also: oxorhenium(V) N3S1 chelate (Re(V)=O)) [2-5] | 43 | 0 | 4 | 0 | – | –
3 | Ac-Ser-Tyr-Ser-Nle-Glu-His-Phe-Arg-Trp-Gly-Lys-Gly-Val-D-Cys-NH2 (EHFRWGKGV; not fully specified; Ac-Ser-Tyr-Ser-Nle N-term; D-Cys; amide; printed: Glu-His-Phe-Arg-Trp-Gly-Lys-Gly-Val-) [2-1] | 97 | 72 | 46 | 53 | – | –
4 | Ac-Ser-Tyr-Ser-Nle-Glu-His-Phe-Arg-Trp-Gly-Lys-Gly-Cys-Val-NH2 (Ac-SYS[Nle]EHFRWGKGCV-NH2; not fully specified (bridges); printed as Ac-Ser-Tyr-Ser-Nle-Glu-His-Phe-Arg-Trp-Gly-Lys-Gly-Cys-Val-NH2; numbers in words are those of the source; also: oxorhenium(V) N3S1 chelate (Re(V)=O)) [1-2] | 87 | 6 | 0 | 37 | – | –
5 | Tyr-Val-Nle-Gly-His-D-Phe-Arg-Trp-Asp-Cys-Arg-Phe-NH2 (YV[Nle]GH[dF]RWDCRF-NH2; also: Re complex) [3-3] | 99 | 95 | 99 | 99 | – | –
6 | YVCGH[dF]RWDRF-NH2 [5-9] | 89 | 53 | 66 | 53 | – | –
7 | Tyr-Val-Nle-Gly-His-D-Phe-Arg-Trp-Asp-Arg-Phe-Cys-NH2 (FRWDRFC; Tyr-Val-Nle-Gly-His N-term; D-residue; amide; printed: Phe-Arg-Trp-Asp-Arg-Phe-Cys-) [3-1] | 95 | 96 | 98 | 102 | – | –
8 | Tyr-Val-Nle-Gly-His-D-Phe-Arg-Trp-Asp-Cys-Phe-NH2 (YV[Nle]GH[dF]RWDCF-NH2; numbers in words are those of the source; also: oxorhenium(V) N3S1 chelate complex (Re=O)) [5-2] | 95 | 39 | 58 | 61 | – | –
9 | Ac-Ser-Tyr-Cys-Ser-Nle-Glu-His-Phe-Arg-Trp-Gly-Lys-Pro-Val-NH2 (chain 1 Ac-SYCS[Nle]; chain 2 EHFRWGKPV-NH2; not fully specified (bridges); printed as Ac-Ser-Tyr-Cys-Ser-Nle-Glu-His-Phe-Arg-Trp-Gly-Lys-Pro-Val-NH2; also: oxorhenium(V) N3S1 chelate (Re(V)=O)) [1-12] | 96 | 15 | 26 | 19 | – | –
10 | Tyr-Val-Nle-Gly-His-Phe-Arg-Trp-Cys-Asp-Arg-Phe-NH2 (YV[Nle]GHFRWCDRF-NH2; numbers in words are those of the source; also: oxorhenium(V) N3S1 chelate (Re=O) with Cys) [4-4] | 52 | 20 | 39 | 47 | – | –
11 | D-Phe-Gln-Trp-Val-Cys-His-Leu-Leu-NH2 ([dF]QWVCHLL-NH2; also: oxorhenium(V) N3S1 chelate complex (Re=O)) [12-4] | – | – | – | – | 5 | –
12 | Pyr-Gln-Arg-Leu-Gly-Cys-Gln-Trp-Ala-Val-Gly-His-Leu-Nle-NH2 (QRLGCQWAVGHL; N-term pyroglutamate; Nle-NH2; rhenium complex; printed: Gln-Arg-Leu-Gly-Cys-Gln-Trp-Ala-Val-Gly-His-Leu-) [7-9] | – | – | – | – | 93 | –
13 | D-Phe-Gln-Trp-Ala-Val-Gly-Cys-Leu-Leu-NH2 ([dF]QWAVGCLL-NH2; also: oxorhenium(V) N3S1 chelate via Cys (Re(V)=O)) [9-3] | – | – | – | – | 70 | –
14 | D-Phe-Gln-Trp-Ala-Val-Gly-His-Leu-Cys-NH2 ([dF]QWAVGHLC-NH2; also: rhenium complex (oxorhenium(V) N3S1 chelate via Cys)) [9-1] | – | – | – | – | 86 | –
15 | D-Phe-Gln-Trp-Val-Cys-Gly-His-Leu-Leu-NH2 ([dF]QWVCGHLL-NH2; also: oxorhenium(V) N3S1 chelate complex (Re=O)) [12-1] | – | – | – | – | 2 | –
16 | D-Phe-Gln-Trp-Ala-Val-Gly-Cys-His-Leu-Leu-NH2 ([dF]QWAVGCHLL-NH2; also: oxorhenium(V) N3S1 chelate via Cys (Re(V)=O)) [8-4] | – | – | – | – | 59 | –
17 | Trp-Ala-Val-Cys-His-Leu-NH2 (WAVCHL-NH2; not fully specified (bridges); printed as Trp-Ala-Val-Cys-His-Leu-NH2; also: oxorhenium(V) N3S1 chelate (Re=O) with Cys) [11-8] | – | – | – | – | 13 | –
18 | Pyr-Gln-Arg-Leu-Gly-Asn-Cys-Gln-Trp-Ala-Val-Gly-His-Leu-Nle-NH2 ([pGlu]QRLGNCQWAVGHL[Nle]-NH2; numbers in words are those of the source; also: oxorhenium(V) N3S1 chelate (Re(V)=O)) [6-9] | – | – | – | – | 91 | –
19 | D-Phe-Gln-Cys-Ala-Val-Gly-His-Leu-Leu-NH2 ([dF]QCAVGHLL-NH2; also: oxorhenium(V) N3S1 tetradentate complex via Cys) [9-7] | – | – | – | – | 19 | least activity
20 | D-Phe-Gln-Trp-Cys-Val-His-Leu-Leu-NH2 ([dF]QWCVHLL-NH2; not fully specified (bridges); printed as D-Phe-Gln-Trp-Cys-Val-His-Leu-Leu-NH2; also: oxorhenium(V) N3S1 chelate complex (Re=O)) [12-6] | – | – | – | – | 10 | –
21 | Pyr-Gln-Arg-Leu-Gly-Asn-Gln-Trp-Ala-Val-Gly-His-Cys-Leu-Nle-NH2 ([pGlu]QRLGNQWAVGHCL[Nle]-NH2; numbers in words are those of the source; also: rhenium complex (oxorhenium(V) N3S1 chelate via Cys)) [6-3] | – | – | – | – | 71 | –
22 | [dF]QWA[dV]CHLL-NH2 [10-3] | – | – | – | – | 7 | –
23 | D-Phe-Gln-Cys-Trp-Ala-Val-Gly-His-Leu-Leu-NH2 ([dF]QCWAVGHLL-NH2; also: oxorhenium(V) N3S1 tetradentate complex via Cys) [8-8] | – | – | – | – | 62 | –
24 | Trp-Ala-Val-Cys-His-Leu-Leu-NH2 (WAVCHLL-NH2; not fully specified (bridges); printed as Trp-Ala-Val-Cys-His-Leu-Leu-NH2; also: oxorhenium(V) N3S1 chelate (Re=O) with Cys) [11-5] | – | – | – | – | 18 | –
